± gives the standard deviation of the averaged measurements.
Test system: ATP
Experiment: switch fluorescence ratio, 500 uM ATP over buffer (Cy3 cluster intensity, sum of 5 cycles each) (fold (ratio)); higher = stronger signal-on switching upon ATP binding; sequences stand for … in TCGTCGGCAGCGTCAGATGTGTATAAGAGACAGTTTTTTTTTTTTTTTTTTTTTTTTT…TC
Conditions: aptamer strand: ATP DNA aptamer (quencher-CACCTGGGGGAGTATTGCGGAGGAAGG + anchor), 100 nM annealed; ATP concentration: 500 uM
Summary of the method: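 Imaging in selection buffer was followed by imaging after 15 min with 500 uM ATP at 22 °C, for Cy3-labelled switching-strand clusters annealed to 100 nM quencher-labelled ATP aptamer on a modified Illumina MiSeq flow-cell. Five of these buffer/ATP cycles ran, separated by NaOH stripping and re-annealing. The fluorescence ratio per cluster is summed target-cycle over summed buffer-cycle Cy3 intensity, averaged per switch-domain sequence; clusters outside 100-1000 RFU were removed.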
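Also: ATP exposure 15 min at 22 °C before imaging.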

Row | Sequence | switch fluorescence ratio
1 | AGCTTTATTT | 1.06 ± 0.12
2 | TCTAAATCG | 1.04 ± 0.055
3 | ATTTCGTTCG | 0.977 ± 0.013
4 | ATGTCAAAAG | 1 ± 0.022
5 | GAATATTTAG | 0.958 ± 0.015
6 | GTCAGAGTCT | 1.05 ± 0.021
7 | TTTGATGGTT | 1.01 ± 0.011
8 | TAGTTACCCG | 0.979 ± 0.045
9 | TACGGGTAAT | 1.04 ± 0.019
10 | ACAGAAGGGT | 0.972 ± 0.098
11 | AAGATTAGTT | 0.998 ± 0.017
12 | TCTGAGACGC | 1.05 ± 0.019
13 | AATACCATTT | 1.01 ± 0.035
14 | TTGATGGTCA | 0.943 ± 0.041
15 | TTGGGGTGAA | 1.1 ± 0.14
16 | CATGAATAG | 0.994 ± 0.011
17 | GAGGCAGAGT | 1.04 ± 0.023
18 | GATTGGAAAG | 1.0069 ± 0.00042
19 | AATTAGCTGC | 1.04 ± 0.043
20 | TTTTGGGTTC | 1.03 ± 0.07
21 | AAGGACGTGG | 0.98 ± 0.029
22 | AAAAACGTCA | 1.003 ± 0.0045
23 | TAATGATGAG | 0.987 ± 0.028

Row | Sequence | switch fluorescence ratio
24 | TAAGGATTAT | 1.008 ± 0.0024
25 | GGCTGACATT | 0.979 ± 0.046
26 | ATGTGTGTAT | 1.12 ± 0.2
27 | TTTTCGAAGG | 1.005 ± 0.0028
28 | GAGTGACTTG | 1.017 ± 0.0089
29 | ATCGAGTGCT | 0.952 ± 0.016
30 | AGTGCAGAGA | 0.989 ± 0.028
31 | GGTTGGAAGG | 0.9761 ± 0.0047
32 | CCTCGTTAGC | 2.63 ± 0.13
33 | CAACTATTTG | 1 ± 0.013
34 | GGGAATAGGG | 1.01 ± 0.02
35 | TCTTGGTCGG | 1.026 ± 0.0041
36 | CGAATATTGA | 0.959 ± 0.038
37 | AGTGGAACTT | 0.976 ± 0.036
38 | CTTGAAGGGA | 0.995 ± 0.029
39 | CGGGGGTTAC | 1.4 ± 0.56
40 | CGTATCGTGA | 1.01 ± 0.041
41 | TTTTTGTAAA | 0.9936 ± 0.003
42 | AGGAGTTGAA | 0.978 ± 0.016
43 | GAGACTTGTT | 0.997 ± 0.042
44 | GATTTTGCAT | 1 ± 0.028
45 | GAAAAAACAC | 1.16 ± 0.1
46 | AAATGGTACT | 1.01 ± 0.035

Row | Sequence | switch fluorescence ratio
47 | TTTAGCGTTT | 0.997 ± 0.051
48 | ATTCTTAGTA | 0.986 ± 0.03
49 | GGCGGGATCT | 1.21 ± 0.26
50 | TTCCTAATT | 1.03 ± 0.033
51 | TGGTTCGGAA | 1.016 ± 0.0048
52 | TATATAGGTA | 1.01 ± 0.043
53 | GGAGTATTGG | 1.02 ± 0.022
54 | GATTGACAGG | 1.04 ± 0.03
55 | AAGGGATCTG | 0.9763 ± 0.0069
56 | GGGTTGACGC | 1.01 ± 0.013
57 | AGGTCATCGA | 1.004 ± 0.0064
58 | CGGTCGACGA | 1.01 ± 0.024
59 | TCGGGGGCGT | 1.03 ± 0.038
60 | TTGGTCCCGA | 1.001 ± 0.0014
61 | AAGTTGGGCT | 1.01 ± 0.025
62 | TTTGGTTGAG | 1 ± 0.047
63 | ACTGTATGTG | 1.05 ± 0.024
64 | TTCAGTTGCA | 1.01 ± 0.024
65 | TGGGACGATC | 1.05 ± 0.028
66 | CGTCAGAGCG | 0.9802 ± 0.008
67 | ATCGGATTAT | 0.969 ± 0.047
68 | TGTAAAAGGT | 1.04 ± 0.092
69 | TGGGTGAGAT | 1.01 ± 0.032

Row | Sequence | switch fluorescence ratio
70 | ATGGTGCTGA | 1.01 ± 0.014
71 | CGAGTCCCCT | 1.04 ± 0.033
72 | AACGATTGGG | 0.948 ± 0.027
73 | TGGGCGTAG | 0.993 ± 0.011
74 | AAAAGAGGTG | 1.08 ± 0.034
75 | CCTAGGGTGG | 1.03 ± 0.069
76 | ATTGTCGTTC | 1.027 ± 0.0098
77 | GGTAGGGGTC | 1.01 ± 0.056
78 | AGATTGGGTA | 1.01 ± 0.024
79 | GACTGTGAGA | 1 ± 0.034
80 | CGGGTCGAGC | 1 ± 0.03
81 | ACTAGGTTAT | 1.16 ± 0.15
82 | TGTGGTTTTT | 1.01 ± 0.031
83 | GGTATTCGGC | 1.01 ± 0.017
84 | TATGAATGTG | 0.991 ± 0.022
85 | ACCGGGGTTT | 1 ± 0.051
86 | GCACTATAGG | 0.999 ± 0.011
87 | AGGACAGGGT | 0.972 ± 0.011
88 | TTGCACTAAC | 1.22 ± 0.05
89 | TCCCGCGGCT | 1.08 ± 0.045
90 | AAGTTAGGGA | 0.919 ± 0.083
91 | TAATGCCAGG | 1.088 ± 0.0038
92 | CGAAGGAATC | 1.78 ± 1.1

Row | Sequence | switch fluorescence ratio
93 | ATCAGCTGTG | 1.02 ± 0.024
94 | TGCGGTGATG | 0.985 ± 0.016
95 | CAAAGGGGAT | 0.99484 ± 0.00073
96 | GCTTAGTTGT | 1.015 ± 0.0065
97 | TAAGTGACGG | 1.04 ± 0.036
98 | GGCTTGGCGT | 0.98 ± 0.034
99 | TAAGTGGTGA | 1.04 ± 0.056
100 | GGGGTAAGAG | 1.019 ± 0.0038
101 | CGGGAACGGT | 1.01 ± 0.026
102 | TGCTAAATTG | 1.015 ± 0.0015
103 | ATTTATGTTG | 1.01 ± 0.031
104 | CTCGTTGAAA | 0.9779 ± 0.0065
105 | TTGAGGGATG | 0.992 ± 0.013
106 | TTCGATGGAA | 1.06 ± 0.0038
107 | TTTTTCCTGA | 1.02 ± 0.011
108 | CGGTGAAGGG | 0.994 ± 0.027
109 | AGTCCGGAGT | 1.05 ± 0.023
110 | GCTTGTGCAT | 0.989 ± 0.028
111 | TGACGCAAAG | 1.63 ± 0.065
112 | GGGGAGAACT | 0.992 ± 0.016
113 | TTTTTCAGCT | 1.02 ± 0.012
114 | GAATTGGATG | 0.965 ± 0.052
115 | GATGGCGTGG | 0.964 ± 0.038

Row | Sequence | switch fluorescence ratio
116 | TGGAAAACCG | 1.08 ± 0.022
117 | GGTGATGAAA | 0.998 ± 0.025
118 | CTCTTTCGAT | 1.03 ± 0.03
119 | TATGGCGGGT | 1 ± 0.014
120 | ATGAAGGGTT | 1 ± 0.029
121 | CTGGGTCTGA | 1.02 ± 0.026
122 | ATTCCTAGTG | 1.03 ± 0.035
123 | CAGTGGGCGT | 1.04 ± 0.026
124 | AGGTTTTTCG | 1.03 ± 0.03
125 | ATAGGGCACA | 1.08 ± 0.015
126 | ACAATGAGTT | 0.985 ± 0.015
127 | TTTTCCATTA | 1 ± 0.044
128 | TTTCAAAGGG | 0.994 ± 0.015
129 | TAGCTTGGGA | 1.01 ± 0.026
130 | GCTCTGTGTT | 0.993 ± 0.017
131 | ACCCCATGTT | 1.86 ± 1
132 | ATTTTGTAGT | 1.02 ± 0.029
133 | GATAAGTCGT | 0.991 ± 0.032
134 | TCGGATCCAA | 1.048 ± 0.0022
135 | GGCACGGAGG | 0.989 ± 0.019
136 | GCCCCTTAGG | 1.1 ± 0.045
137 | TAGGATTTTT | 1.026 ± 0.0081
138 | TCTTGGGTTG | 0.986 ± 0.029

Row | Sequence | switch fluorescence ratio
139 | ACCGGGGTGG | 0.991 ± 0.05
140 | GGCCTTGGCA | 1.03 ± 0.015
141 | TAAAGTTCAG | 0.9685 ± 0.0073
142 | TATTAGCAGC | 1.03 ± 0.012
143 | GGACAATGGG | 0.985 ± 0.033
144 | ATTTGTCGTA | 0.997 ± 0.029
145 | AAGGGATTAA | 1.01 ± 0.016
146 | GGCAACTTCT | 1.02 ± 0.011
147 | GCTGGTTAGG | 1 ± 0.032
148 | CCGATGGGGG | 1.01 ± 0.025
149 | GAACTTTTTA | 0.981 ± 0.011
150 | TCTAGGGGTG | 1.03 ± 0.025
151 | TTAGGTGGG | 0.989 ± 0.024
152 | CTTGCGGCCT | 1.11 ± 0.15
153 | GGCGTGGCGG | 0.994 ± 0.019
154 | ATGAGACAGA | 0.999 ± 0.049
155 | GGCACATAAT | 1.08 ± 0.087
156 | AGGTATGCAG | 0.9983 ± 0.0044
157 | AATGGAGGGG | 0.978 ± 0.019
